From PMC6291252 (PLoS ONE, 2018)

Molecular target: Recombinant TcdB (aa 1751–2366), biotinylated (Clostridioides difficile; strain of …, UniProt P18177)
Test: SPR
Details: both partners purified

Chain of Recombinant TcdB (aa 1751–2366), biotinylated (P18177 1751-2366): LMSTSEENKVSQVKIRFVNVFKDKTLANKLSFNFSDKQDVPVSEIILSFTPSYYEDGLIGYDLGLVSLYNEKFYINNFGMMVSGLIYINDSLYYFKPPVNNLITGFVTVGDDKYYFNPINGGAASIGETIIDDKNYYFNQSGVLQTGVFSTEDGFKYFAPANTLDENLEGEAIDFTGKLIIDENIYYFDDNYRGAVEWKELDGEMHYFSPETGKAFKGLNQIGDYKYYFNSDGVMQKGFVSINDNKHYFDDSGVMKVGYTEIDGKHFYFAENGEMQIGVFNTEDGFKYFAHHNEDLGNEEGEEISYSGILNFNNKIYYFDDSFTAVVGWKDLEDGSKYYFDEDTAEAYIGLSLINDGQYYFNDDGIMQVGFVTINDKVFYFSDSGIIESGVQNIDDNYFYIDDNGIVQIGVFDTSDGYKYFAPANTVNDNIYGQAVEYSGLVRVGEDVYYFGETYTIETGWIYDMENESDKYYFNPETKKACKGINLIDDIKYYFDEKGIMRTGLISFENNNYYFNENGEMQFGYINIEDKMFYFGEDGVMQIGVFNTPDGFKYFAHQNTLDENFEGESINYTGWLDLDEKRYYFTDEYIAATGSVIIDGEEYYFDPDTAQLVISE

B1: B39 (VHH)
VHH: QVQLVESGGGLVQAGGSLRLSCAASGLTFSRYVMGWFRQAPGKEREFVAAITWGGTPNYADSVKGRFTISRDNSKNTQYLQMNSLKPEDTAVYYCAAGLGWDSRYSQSYNYWGQGTQVTVSS
Kd: 0.07 nM
koff: 0.00256 s⁻¹
kon: 3.44e+07 M⁻¹ s⁻¹
